Kd and dH data for 3 molecules are collected here from publication PMC9076029 (Journal of Molecular Biology, 2022).

Holding throughout (experiment): ITC
In experiment [1] the target is T1, SARS-CoV-2 spike protein receptor binding domain, wild-type (SARS-CoV-2, UniProt P0DTC2).
Experiment [2] deals with T1, SARS-CoV-2 spike protein receptor …. This is another data set of the same source.
The target is the same in experiment [3]. This is another data set of the same source.
The target is the same in experiment [4]. The source holds these as a separate data set.

Where two headings read alike, the source gives them in different places.

B1: LY-CoV016 single chain variable fragment (scFv, V domains shown)
VH: EVQLVESGGGLVQPGGSLRLSCAASGFTVSSNYMSWVRQAPGKGLEWVSVIYSGGSTFYADSVKGRFTISRDNSMNTLFLQMNSLRAEDTAVYYCARVLPMYGDYLDYWGQGTLVTVSS
VL: not shown
In experiment [1], B1 yielded a Kd of 0.0493 ± 0.0101 µM and a dH of -48.95 ± 0.418 kJ/mol.

B2: REGN10987 single chain variable fragment (scFv, V domains shown)
VH: QVQLVESGGGVVQPGRSLRLSCAASGFTFSNYAMYWVRQAPGKGLEWVAVISYDGSNKYYADSVKGRFTISRDNSKNTLYLQMNSLRTEDTAVYYCASGSDYGDYLLVYWGQGTLVTVSS
VL: QSALTQPASVSGSPGQSITISCTGTSSDVGGYNYVSWYQQHPGKAPKLMIYDVSKRPSGVSNRFSGSKSGNTASLTISGLQSEDEADYYCNSLTSISTWVFGGGTKLTVL
Consider B2, for which the affinity in experiment [2], expressed as Kd, was 0.0343 ± 0.0081 µM.

B3: LY-CoV555 single chain variable fragment (scFv, V domains shown)
VH: QVQLVQSGAEVKKPGSSVKVSCKASGGTFSNYAISWVRQAPGQGLEWMGRIIPILGIANYAQKFQGRVTITADKSTSTAYMELSSLRSEDTAVYYCARGYYEARHYYYYYAMDVWGQGTAVTVSS
VL: not shown
For the molecule B3, the figures for the Kd in experiment [3] and in experiment [4] were 0.0038 ± 0.0019 µM and 0.0039 ± 0.0019 µM, respectively.
